The values below come from IntAct's records for PubMed 24792722.

B1: Rho guanine nucleotide exchange factor 7 (Homo sapiens), Q14155 (parent)
chain: MNSAEQTVTWLITLGVLESPKKTISDPEGFLQASLKDGVVLCRLLERLLPGTIEKVYPEPRSESECLSNIREFLRGCGASLRLELLFPPSQPPQHLVTTILLSASTFDANDLYQGQNFNKVLSSLVTLNKVTADIGLGSDSVCARPSSHRIKSFDSLGSQSLHTRTSKLFQGQYRSLDMTDNSNNQLVVRAKFNFQQTNEDELSFSKGDVIHVTRVEEGGWWEGTLNGRTGWFPSNYVREVKASEKPVSPKSGTLKSPPKGFDTTAINKSYYNVVLQNILETENEYSKELQTVLSTYLRPLQTSEKLSSANISYLMGNLEEICSFQQMLVQSLEECTKLPEAQQRVGGCFLNLMPQMKTLYLTYCANHPSAVNVLTEHSEELGEFMETKGASSPGILVLTTGLSKPFMRLDKYPTLLKELERHMEDYHTDRQDIQKSMAAFKNLSAQCQEVRKRKELELQILTEAIRNWEGDDIKTLGNVTYMSQVLIQCAGSEEKNERYLLLFPNVLLMLSASPRMSGFIYQGKLPTTGMTITKLEDSENHRNAFEISGSMIERILVSCNNQQDLQEWVEHLQKQTKVTSVGNPTIKPHSVPSHTLPSHPVTPSSKHADSKPAPLTPAYHTLPHPSHHGTPHTTINWGPLEPPKTPKPWSLSCLRPAPPLRPSAALCYKEDLSKSPKTMKKLLPKRKPERKPSDEEFASRKSTAALEEDAQILKVIEAYCTSAKTRQTLNSTWQGTDLMHNHVLADDDQPSLDSLGRRSSLSRLEPSDLSEDSDYDSIWTAHSYRMGSTSRKSCCSYISHQN

The variants in the assay derive from B1. Particulars: with rac1_human RAC1, P63000.
For the variant P340E, the “effect of a mutation on the interaction” value is “increasing interaction”.
